According to patent US20150203579A1 (Regeneron, published 2015):

T1: monkey PD-1 with mFc (monkey)
T1 construct: also called monkey PD-1-mFc; monkey PD-1 dimer
T1 chain: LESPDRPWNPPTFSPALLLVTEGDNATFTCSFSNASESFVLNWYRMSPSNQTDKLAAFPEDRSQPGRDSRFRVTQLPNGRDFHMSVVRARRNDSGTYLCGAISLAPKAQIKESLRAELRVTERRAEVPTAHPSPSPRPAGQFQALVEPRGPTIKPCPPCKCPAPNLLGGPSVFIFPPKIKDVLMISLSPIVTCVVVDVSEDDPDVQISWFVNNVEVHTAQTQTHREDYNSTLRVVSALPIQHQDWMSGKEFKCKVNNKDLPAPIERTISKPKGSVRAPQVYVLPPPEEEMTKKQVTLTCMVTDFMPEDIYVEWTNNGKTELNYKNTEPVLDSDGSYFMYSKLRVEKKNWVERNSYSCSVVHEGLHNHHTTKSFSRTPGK

B1: H2aM7788N (antibody, V domains shown)
VH: EVQLVESGGGLVQPGGSLRLSCGASGFTFRNYDMHWVRQITGKGLEWVSAIGSAGDTYYPDSVKGRFTISRENAKNSLYLQMNSLRVGDTAVYYCTRDIHCSSTRCYGMDVWGQGTTVTVSS
VL: not shown
notes: human variable regions, mouse IgG2a Fc; also called H2M7788N
B2: H4xH9037P (antibody, V domains shown)
VH: EVQLVESGGGLVQPGGSLRLSCAASGFTFDDYAMHWVRQAPGKGLEWVSGIGWSSGSIGYADSVKGRFTISRDNAKNSLYLQMDSLRPEDSALYYCAKAYTFMITLYFDYWGQGTLVTVSS
VL: not shown
notes: human IgG4 Fc with 2 or more amino acid changes (US20100331527); also called H4xH9037P2
B3: H4xH9045P (antibody, V domains shown)
VH: EVQLVESGGGLVQPGRSLRLSCAASGFTFDDYDMHWVRQAPGKGLEWVSGSGWNRGSLGYADSVKGRFTISRDNAKKSLYLQMNSVRVEDTALYYCAKGFVVVSAAYFDYWGQGTLVTVSS
VL: not shown
notes: human IgG4 Fc with 2 or more amino acid changes (US20100331527); also called H4xH9045P2
B4: H4xH9034P (antibody, V domains shown)
VH: EVQLVESGGGVVRPGGSLRLSCTASGFTFDDYGMSWVRQAPGKGLEWISGIGWTGGRSSYADSVRGRFTISRDNAKNSLYLQMNSLGAEDTALYYCARDRQWLVQWYFDYWGQGTLVTVSS
VL: not shown
notes: human IgG4 Fc with 2 or more amino acid changes (US20100331527); also called H4xH9034P2
B5: H1M7799N (antibody, V domains shown)
VH: EVQLVESGGGLVQPGGSLRLSCAASGFTVSNNYMSWVRQAPGKGLEWVSVIYSGGFTYYTDSVKGRFTISRHNSKNTLYLQMNSLRAEDTAVYYCARYYYDTSDYWTFFDYWGQGTLVTVSS
VL: EIVMTQSPATLSVSPGERATLSCRASQSVSSNLAWYQQKPGQAPRLLIYGASTRATGIPARFSGSGSGTEFTLTISSLQSGDFAVYYCQQYNNWPLTFGGGTKVEIN
notes: human variable regions, mouse IgG1 Fc
B6: H1M7800N (antibody, V domains shown)
VH: B5 VH
VL: B5 VL
notes: as for B5
B7: H2aM7780N (antibody, V domains shown)
VH: QVQLVESGGGVVQSGRSLRLSCAASGFTFSSYGMHWVRQAPGKGLEWVAVIWYDGSNIYYSDSVKGRFTISRANSKNTLYLQMNSLRAEDTAVYYCARPGHWNYFFEYWGQGTLVTVSS
VL: DIQMTQSPSSLSASVGDRVTITCRASQSINNYLNWYQQKPGKAPKLLIYTASSLQSGVPSRFSGSGSGTDFTLTISSLQPEDFATYYCQQSYSTPPLTFGQGTQLEIK
notes: human variable regions, mouse IgG2a Fc; also called H2M7780N

Biological target: T2, full length human PD-1 on HEK293/hPD-1 cells (human, UniProt Q15116 25-288)
Test: FACS, 100 nM mAb

Binder	ratio of MFI HEK293/hPD-1 to HEK293 parental cells
B1	75.7
B2	81.4
B3	93.7
B4	69
B5	26.9
B6	24.7
B7	73.8

Biological target: PD-1 chimera: extracellular domain of human PD-1 with trans-membrane and cytoplasmic domains of human CD300a, … (human, UniProt Q9UGN4 181-299, limits assumed)
Test: cell-based or functional assay

Binder	Concentration (M) of Antibody at 150% activation	Emax mean [%] @ 100 nM
B1	4.72e-09 M	189%
B2	2.82e-09 M	195%
B3	2.23e-08 M	176%
B4	2.62e-09 M	202%
B5	2.97e-08 M	183%
B6	1.65e-08 M	182%
B7	6.52e-09 M	228%

Biological target: T1, monkey PD-1 with mFc
Test: SPR, captured mAb, 25 C;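 further: purified anti-PD-1 antibodies tested on Biacore 4000 or T200 instruments, rate constants obtained via 1:1 binding model fit, with KD as kd/ka and half-life as ln2/(60·kd)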

Binder	100 nM Monkey PD-1-mFc Bound (RU)	Kd	koff	kon	t1/2
B2	58 RU	0.912 nM	0.000137 s⁻¹	150000 M⁻¹ s⁻¹	84 min
B3	78 RU	1.72 nM	0.000168 s⁻¹	97800 M⁻¹ s⁻¹	69 min
B4	95 RU	0.818 nM	0.000166 s⁻¹	203000 M⁻¹ s⁻¹	70 min

Biological target: T1, monkey PD-1 with mFc
Test: SPR, captured mAb, 37 C;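 further: Real-time Biacore surface plasmon resonance biosensor readout of PD-1 reagent binding to purified anti-PD-1 monoclonal antibodies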

Binder	100 nM Monkey PD-1-mFc Bound (RU)	Kd	koff	kon	t1/2
B2	24 RU	3.21 nM	0.000897 s⁻¹	280000 M⁻¹ s⁻¹	13 min
B3	65 RU	5.66 nM	0.00136 s⁻¹	241000 M⁻¹ s⁻¹	8 min
B4	81 RU	2.44 nM	0.000749 s⁻¹	307000 M⁻¹ s⁻¹	15 min

Biological target: T2, full length human PD-1 on HEK293/hPD-1 …
Test: FACS, 100 nM mAb, HEK293/hPD-1 cells;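 further: antibodies incubated with cells for 15-30 min on ice, bound antibody detected through a secondary F(ab′)2 by flow cytometry, with parental HEK293 cells tested in parallel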

Binder	MFI
B1	23100 MFI
B2	8790 MFI
B3	8880 MFI
B4	10100 MFI
B5	6860 MFI
B6	6810 MFI
B7	23700 MFI

Biological target: T2, full length human PD-1 on HEK293/hPD-1 …
Test: FACS dose response, HEK293/hPD-1 cells

Binder	EC50	Max Geom. Mean MFI @ 100 nM
B1	0.321 nM	14800 MFI
B2	0.674 nM	36400 MFI
B3	0.0917 nM	24700 MFI
B4	0.209 nM	32400 MFI
B5	0.0332 nM	24400 MFI
B6	0.048 nM	20800 MFI
B7	1.69 nM	18400 MFI

Biological target: T3, recombinant human PD-1 dimer expressed with a C-terminal mouse IgG2a Fc tag (human)
T3 construct: also called hPD-1-mFc
Test: competition ELISA: 1.5 nM hPD-1-mFc to coated hPD-L1-hFc

Binder	% blocking at 200 nM antibody	IC50
B1	74%	
B2	100%	0.89 nM
B3	98%	
B4	98%	
B5	82%	
B6	83%	
B7	94%	

Biological target: T4, dimeric biotinylated human PD-1 protein with a C-terminal human Fc tag (human, biotinylated (sites not given))
T4 construct: also called biot-hPD-1-hFc
Test: competition ELISA: 200 pM biot-hPD-1-hFc to coated hPD-L1-mFc

Binder	% blocking at 50 nM antibody	IC50
B1	100%	
B2	95%	
B3	95%	0.13 nM
B4	96%	
B5	100%	
B6	99%	
B7	100%	

Biological target: T3, recombinant human PD-1 dimer expressed …
Test: BLI Octet: 100 nM hPD-1-mFc + 500 nM mAb to captured hPD-L1-hFc

Binder	% Blocking	binding of the mixture (nm)
B1	100%	0 nm
B5	100%	0 nm
B6	100%	0 nm
B7	114%	-0.01 nm

Biological target: T5, recombinant human PD-1 expressed with a C-terminal human IgG1 Fc tag (human)
T5 construct: also called hPD-1-hFc; hPD1-hFc
Test: SPR Biacore 3000: 100 nM hPD-1.hFc + 500 nM mAb to captured hPD-L1.mFc;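 further: inhibition study with anti-PD-1 mAbs, SPR responses tracked in real time and read at the close of each step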

Binder	% Blocking	binding of the mixture (RU)
B2	104%	-4 RU
B3	105%	-5 RU
B4	105%	-5 RU

Biological target: T6, recombinant human PD-L1 expressed with a C-terminal mouse IgG2a Fc tag (human)
T6 construct: also called hPD-L1-mFc; hPD-L1.mFc
Test: SPR Biacore 3000: 500 nM mAb alone (no hPD-1.hFc) over captured hPD-L1.mFc surface, control

Binder	500 nM of anti-PD-1 monoclonal antibody (RU)
B2	-4 RU
B3	-4 RU
B4	-4 RU

Biological target: T3, recombinant human PD-1 dimer expressed …
Test: competition ELISA: 1.5 nM hPD-1-mFc to coated hPD-L1-hFc; * below theoretical bottom 7.5E-10 M

Binder	IC50
B1	0.22 nM
B3	0.28 nM
B4	0.51 nM
B5	0.22 nM
B6	0.6 nM
B7	0.69 nM

Biological target: T4, dimeric biotinylated human PD-1 protein …
Test: competition ELISA: 200 pM biot-hPD-1-hFc to coated hPD-L1-mFc; * below theoretical bottom 1.0E-10 M

Binder	IC50
B1	0.065 nM
B2	0.078 nM
B4	0.066 nM
B5	0.059 nM
B6	0.065 nM
B7	0.091 nM
